Ends that are not written are not given here. * marks the point of attachment. Biotin = O=C1N[C@H]2[C@H](CS[C@H]2CCCCC(=O)*)N1
Key:
[1] = molecular target: T1, GST-Hsp90 (amino acids 1-732) (human, UniProt P07900 1-732); assay: pull-down of 35S in vitro translated XIAP BIR3 with GST-Hsp90, autoradiography
T1 construct: also called Sepharose-GST-Hsp90; GST fusion of full length Hsp90; not shown: glutathione S-transferase (GST) frame of vector pGex-4T3
From the text: (§1) The cDNAs for XIAP and XIAP Baculovirus IAP Repeats (BIR) domains (BIR1, Met 1 to Ser 123; BIR2, Arg 124 to Pro 260; and BIR3, Ser 261 to Gln 336) were obtained from retro-transcription (SuperScript™ First Strand Synthesis System for RT-PCR, Invitrogen) of RNA extracted from HeLa cells (TRI Reagent™, Molecular Research Center Inc.), amplified by PCR, and cloned in pcDNA3 vector (Invitrogen). pcDNA3-XIAP and pcDNA3-XIAP BIR domains were translated in vitro using the TNT™ Quick Coupled Transcription/Translation System (Promega) in the presence of ³⁵S labeled methionine (Amersham), and 2, 5, and 8 μl of the reaction were incubated with 10 μg GST or GST fusion proteins as described above.
(§2) pcDNA3-XIAP and pcDNA3-XIAP BIR domains were translated in vitro as described in Example 4. […] GST-Hsp90 or GST was mixed with ³⁵S in vitro translated XIAP or its individual Baculovirus IAP Repeats: BIR1, BIR2, and BIR3. Reactions were centrifuged and proteins that associated with the pellet were detected by autoradiography.

full length Hsp90alpha [2] = molecular target: T2, full length Hsp90alpha (human, UniProt P07900 1-732); assay: competition ELISA, peptide inhibits the binding of recombinant survivin to Hsp90
T2 construct: also called r-Hsp90; rHsp90

[3] = molecular target: T3, GST-N-Hsp90 (amino acids 1-272 of SEQ ID NO:21) (human, UniProt O02705 1-273 (pig entry)); assay: ELISA, peptide immobilized at rising concentrations, Hsp90 N-terminal fragment added, detection with anti-Hsp90
T3 construct: also called N-terminal domain of Hsp90; Hsp90 N-terminal fragment; not shown: glutathione S-transferase (GST) frame of vector pGex-4T3
Description: (§3) ELISA experiments were performed by immobilizing recombinant Survivin (r-Survivin) ([…]) or recombinant Hsp90 (r-Hsp90) (10 μg/ml) on plastic microtiter wells (Immulon™-2, Dynatech Laboratories, Chantilly, Va.) using bicarbonate buffer, pH 9.5 (100 μl/well) for 18 hours at 4° C. Bound protein was blocked with 3% gelatin for 1 hour at 37° C., rinsed with washing buffer (TBS pH 7.4, 0.1% Tween™, 0.1% BSA) and incubated for 1 hour at 37° C. with different concentrations of a test protein to determine if the test protein bound the immobilized protein.
(§4) FIGS. 24A and 24B identify the location of P31 peptide's binding site as the N-terminus domain of Hsp90. The generation of recombinant Hsp90 fragments of the N-terminus or C-terminus is described in Example 3. ELISA experiments were performed as described in Example 2, except the indicated increasing concentrations of the P31 peptide (squares; SEQ ID NO:19) or control P33 peptide (circles; SEQ ID NO:25) were immobilized on plastic microtiter plates and incubated with the indicated Hsp90 N-terminal and C-terminal fragments. After washing, binding of the individual Hsp90 fragments to the immobilized peptides was detected with an antibody to Hsp90. Antibody to the C-terminal and N-terminal fragments of Hsp90 were obtained from BD/Transduction Laboratories and Santa Cruz Biotechnology, Inc. (Santa Cruz, Calif.), respectively.

[4] = molecular target: T4, GST-C-Hsp90 (amino acids 629-732 of SEQ ID NO:21) (human, UniProt A5A6K9 630-733 (Pan troglodytes entry)); assay: ELISA, peptide immobilized at rising concentrations, Hsp90 C-terminal fragment added, detection with anti-Hsp90
T4 construct: not shown: glutathione S-transferase (GST) frame of vector pGex-4T3
T4 sequence (A5A6K9 630-733): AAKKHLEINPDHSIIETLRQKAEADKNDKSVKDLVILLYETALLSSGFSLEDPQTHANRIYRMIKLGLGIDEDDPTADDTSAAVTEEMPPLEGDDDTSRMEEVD
Description: as §3, §4

full length Hsp90alpha [5] = molecular target: T2, full length Hsp90alpha; assay: ELISA, peptide immobilized, recombinant Hsp90 added, detection with anti-Hsp90 (n=2); no blank bar on the sheet
Description: Indicated synthetic peptides from the Survivin core sequence Lys 79-Leu 87 (SEQ ID NO:24) were synthesized carrying single alanine substitutions at each indicated position (alanine scanning mutagenesis). Individual peptides were immobilized at indicated increasing concentrations on plastic microtiter plates, incubated with recombinant Hsp90, and binding to the various substrates was determined with an antibody to Hsp90 by ELISA and quantified by absorbance at OD₄₀₅. […] In contrast, no differences were observed between the wild type peptide sequence and alanine substitutions of the residues flanking this sequence, Lys 79, Ala 85, Phe 86, and Leu 87.

full length Hsp90alpha [6] = molecular target: T2, full length Hsp90alpha; assay: competition ELISA: peptide (20 µg/ml) preincubated with Hsp90, then added to immobilized full length Survivin (the competitor)
Description: as §3
ELISA experiments were performed essentially as in Example 2 with the following variations. 20 μg/ml of each recombinant Survivin peptide (expressed in E. coli) was preincubated with Hsp90 at 2.5 mg/ml for 16 hours at 4° C. After binding and blocking of full length Survivin to wells in a microtiter plate, the preincubated mixtures of Hsp90 and Survivin peptides were added to the wells and incubated for 1 hour at 37° C. Wells were washed, incubated with primary antibody, washed again, and bound antibody was quantified as described above. Each experiment was repeated three times and the standard deviation is shown. The twelve amino acid Survivin peptide including Lysine 79-Lysine 90 (K79-K90; SEQ ID NO:3) was an especially effective inhibitor of Hsp90-Survivin binding interactions.

full length Hsp90alpha [7] = molecular target: T2, full length Hsp90alpha; assay: surface plasmon resonance, biotin peptide on streptavidin chip, r-Hsp90 injected
Description: Wild type Survivin peptide 77 to 91 (SEQ ID NO:22) or the corresponding C84A mutant 77-91 peptide ([…]; SEQ ID NO:23) was synthesized with an N-terminal biotin and immobilized on streptavidin coated chips (SA5) purchased from Biacore Inc. (Piscataway, N.J.). Increasing concentrations (100 nM-10 μM) of purified r-Hsp90 suspended in 10 mM HEPES, 150 mM NaCl, 3 mM EDTA, 0.005% polysorbate-20, 1 mM DTT, were then injected in […] over the immobilized peptides. A constant flow rate of […] was maintained, and the dissociation phase was followed for 300 seconds. Surfaces were regenerated using […] of 1 M NaCl/50 mM NaOH after each dissociation phase. A new injection cycle was initiated only after 10 min post-regeneration to ensure complete removal of NaCl and NaOH. The collected data were analyzed using the Biaeval 3.0 software package from Biacore Inc.
Sensorgrams (FIG. 10B) indicate binding of the Survivin peptides to Hsp90, measured by an increase in surface plasmon resonance during analyte flow over the chip surface, with the nonspecific signal from the biotin-only surface subtracted.

[8] = molecular target: T1, GST-Hsp90 (amino acids 1-732); assay: pull-down of 35S in vitro translated XIAP BIR2 with GST-Hsp90, autoradiography
From the text: as §1, §2

Hsp 27 = molecular target: T5, Hsp 27 (UniProt P04792 1-205); assay: affinity chromatography of Raji cell extracts on immobilized peptide, Western blot
T5 construct: Endogenous protein of Raji cells
T5 sequence (P04792 whole entry): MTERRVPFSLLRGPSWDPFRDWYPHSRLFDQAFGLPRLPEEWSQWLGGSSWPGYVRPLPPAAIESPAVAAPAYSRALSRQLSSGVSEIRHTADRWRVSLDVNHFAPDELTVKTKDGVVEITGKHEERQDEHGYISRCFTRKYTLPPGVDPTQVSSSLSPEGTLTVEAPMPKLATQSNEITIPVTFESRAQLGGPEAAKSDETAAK
From the text: A Survivin Ile⁷⁴-Leu⁸⁷ peptide (SEQ ID NO:4) containing a binding site for Hsp90 was immobilized onto a Sulfolink™ Coupling Gel (Pierce, Rockport, Ill.), and used to fractionate Raji cell extracts. Proteins were identified in the flow trough (FT) or eluate (E) by Western blotting with the indicated antibodies. Hsp90 and Hsp70 clearly bound the Survivin peptide including residues Ile⁷⁴-Leu⁸⁷. The anti-Hsp70 antibodies were obtained from Abcam, Cambridge, Mass. (cat. No. ab6535).

B1: XIAP BIR3 fragment (Ser 261 to Gln 336) (other, human, UniProt P98170 261-336, looked up)
chain: SMADYEARIFTFGTWIYSVNKEQLARAGFYALGEGDKVKCFHCGGGLTDWKPSEDPWEQHAKWYPGCKYLLEQKGQ
notes: range 261-336; 35S-labelled, in vitro translated
B1: no binding [1].

RQIKIWFQNRRMKWKKKHSSG [shorter cell permeable Survivin peptide (Antennapedia carrier sequence fused to Survivin K79-G83)]: binds (full length Hsp90alpha [2]).

B2: P31 survivin peptide (Antennapedia carrier sequence fused to Survivin K79-L87) (peptide)
peptide: Biotin-RQIKIWFQNRRMKWKKKHSSGCAFL
notes: also called Survivin cell permeable peptide
B2: binds (full length Hsp90alpha [2]); binds [3]; no binding (tested: 0.25 mg/ml) [4].

B3: Survivin core sequence peptide Lys 79-Leu 87 (peptide)
peptide: KHSSGCAFL
notes: Synthetic, immobilized on plastic microtiter plates; also called Survivin peptide (K79-L87)
B3: binds (full length Hsp90alpha [5]).

AHSSGCAFL (also called K79A) [Survivin Lys 79-Leu 87 peptide with alanine substitution of Lys 79]: binds (full length Hsp90alpha [5]).

KHSSGCAAL (also called F86A) [Survivin Lys 79-Leu 87 peptide with alanine substitution of Phe 86]: binds (full length Hsp90alpha [5]).

KHSSGCAFA (also called L87A) [Survivin Lys 79-Leu 87 peptide with alanine substitution of Leu 87]: binds (full length Hsp90alpha [5]).

B4: Survivin peptide Lysine 79-Lysine 90 (peptide)
peptide: KHSSGCAFLSVK
notes: Called both synthetic and recombinant (expressed in E. coli) in the same paragraph; also called K79-K90
B4: binds (full length Hsp90alpha [6]).

B5: wild type Survivin peptide 77 to 91 (peptide)
peptide: Biotin-HKKHSSGCAFLSVKK
notes: Immobilized on streptavidin coated Biacore chips; also called wild type peptide
B5 was tested, and the Kd (full length Hsp90alpha [7]) was 0.0838 µM and the “off-rate, fold slower than the C84A peptide (SEQ ID NO:23)” value (full length Hsp90alpha [7]) was 10 fold.

B6: C84A mutant Survivin 77-91 peptide (peptide)
peptide: Biotin-HKKHSSGAAFLSVKK
notes: Immobilized on streptavidin coated Biacore chips; also called C84A peptide
B6: binds (full length Hsp90alpha [7]).

B7: XIAP BIR2 fragment (Arg 124 to Pro 260) (other, human, UniProt P98170 124-260, looked up)
chain: RDHFALDRPSETHADYLLRTGQVVDISDTIYPRNPAMYSEEARLKSFQNWPDYAHLTPRELASAGLYYTGIGDQVQCFCCGGKLKNWEPCDRAWSEHRRHFPNCFFVLGRNLNIRSESDAVSSDRNFPNSTNLPRNP
notes: range 124-260; 35S-labelled, in vitro translated
B7: no binding [8].

B8: Survivin Ile74-Leu87 peptide (peptide)
peptide: IDDHKKHSSGCAFL
notes: Immobilized on Sulfolink Coupling Gel; also called Survivin peptide (Ile74-Leu87)
B8: no binding (Hsp 27).
